Experimental findings from paper PMC8117407 are described below.

This test addresses mXFP-TpoR (thrombopoietin receptor N-terminally fused to nonfluorescent mEGFP Tyr66Phe) (UniProt P40238). The test is described as follows: live-cell micropatterning with FRAP.

As for JAK2 FS L224E (domain or fragment), the fold reduction of binding stability against JAK2 FS wt is 20 fold.
